Key:
[1] = target: T1, SARS-CoV-2 spike receptor-binding domain (RBD) (SARS-CoV-2, UniProt P0DTC2); assay: BLI; settings: both partners purified
[2] = target: T1, SARS-CoV-2 spike receptor-binding …; assay: ELISA; settings: both partners purified

B1: CTC-445.2t (designed binder)
chain: SAEIDLGKGDFREIRASEDAREAAEALAEAARAMKEALEIIREIAEKLRDSSRASEAAKRIAKAIRKAADAIAEAAKIAARAAKDGDAARNAENAARKAKEFAEEQAKLADMYAELAKNGDKSSVLEQLKTFADKAFHEMEDRFYQAALAVFEAAEAAAGGGGSGGSGSGGSGGGSSAEIDLGKGDFREIRASEDAREAAEALAEAARAMKEALEIIREIAEKLRDSSRASEAAKRIAKAIRKAADAIAEAAKIAARAAKDGDAARNAENAARKAKEFAEEQAKLADMYAELAKNGDKSSVLEQLKTFADKAFHEMEDRFYQAALAVFEAAEAAAGGGGSGGSGSGGSGGGSSAEIDLGKGDFREIRASEDAREAAEALAEAARAMKEALEIIREIAEKLRDSSRASEAAKRIAKAIRKAADAIAEAAKIAARAAKDGDAARNAENAARKAKEFAEEQAKLADMYAELAKNGDKSSVLEQLKTFADKAFHEMEDRFYQAALAVFEAAEAAAG
- Kd [1]: ~0.27 nM
- IC50 [2]: ~0.01 nM
